From the supplement of paper PMC10724198
± gives the standard deviation of the averaged measurements.

The sequences below were run on Saccharomyces cerevisiae (assay: protein stability index of tFT-peptide fusion (C-terminal peptide) (PSI (0-1 scale)); higher = more stable (slower turnover)). Details: genetic background: wild type; temperature: 30 C.
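Further: PSI is a weighted mean of sequencing reads over stability bins, variants kept only with over 10 reads, mCherry proximal and sfGFP distal, peptide attached via GGGS linker.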

First: PPPPAHPPPRSP
Second: PPPPANVSHHAP
The protein stability index of the first is higher: 0.741 ± 0.035 for the first, 0.593 ± 0.073 for the second.

First: PPPPAPPPPVPS
Second: PPPPAPSPPPSP
The protein stability index of the first is lower: 0.69246 ± 0.00027 for the first, 0.717 ± 0.0094 for the second.

Going from PPPPASARPSLP to PPPPFLLPPLLD, the protein stability index rises from 0.477 ± 0.069 to 0.707 ± 0.012.

PPPPHFLVPLSP and PPPPLDSFPFIT are within error of each other in protein stability index: 0.695 ± 0.021 for the first, 0.701 ± 0.043 for the second.

PPPPLLPPPSPL and PPPPLLPTPRPF are within error of each other in protein stability index: 0.7 ± 0.032 for the first, 0.682 ± 0.039 for the second.

Going from PPPPLPPPPSPA to PPPPLPPPSHYP, the protein stability index falls from 0.7911 ± 0.0045 to 0.728 ± 0.033.

Going from PPPPLPRAPFSP to PPPPLPSPAPRP, the protein stability index rises from 0.661 ± 0.0092 to 0.735 ± 0.032.

First: PPPPLSPPPEPR
Second: PPPPNPPRPSSR
The protein stability index of the first is lower: 0.659 ± 0.014 for the first, 0.758 ± 0.026 for the second.

First: PPPPPALPSPPP
Second: PPPPPAPPPTPL
The protein stability index of the first is higher: 0.631 ± 0.025 for the first, 0.556 ± 0.011 for the second.

First: PPPPPATRPSSL
Second: PPPPPFLPPPRL
The protein stability index of the first is lower: 0.674 ± 0.018 for the first, 0.749 ± 0.011 for the second.

PPPPPGLAPPSP and PPPPPHRTPHPS are within error of each other in protein stability index: 0.681 ± 0.011 for the first, 0.727 ± 0.096 for the second.

Compared with PPPPPLPLDYPP, PPPPPLPPRSCL is higher in protein stability index: 0.638 ± 0.025 for the first, 0.703 ± 0.013 for the second.

PPPPPLSPHSPP and PPPPPPALPEYQ are within error of each other in protein stability index: 0.699 ± 0.023 for the first, 0.708 ± 0.01 for the second.

PPPPPPLAAPPS and PPPPPPLPHSPP are within error of each other in protein stability index: 0.7098 ± 0.0053 for the first, 0.647 ± 0.095 for the second.

PPPPPPLPLLSI and PPPPPPLSSPFP are within error of each other in protein stability index: 0.668 ± 0.038 for the first, 0.643 ± 0.032 for the second.

PPPPPPNPLPLP and PPPPPPPHSPLS are within error of each other in protein stability index: 0.68 ± 0.032 for the first, 0.685 ± 0.04 for the second.

PPPPPPPLPLLP and PPPPPPPPLAPP are within error of each other in protein stability index: 0.667 ± 0.036 for the first, 0.694 ± 0.022 for the second.

PPPPPPPPPPRA and PPPPPPPPPTFL are within error of each other in protein stability index: 0.723 ± 0.035 for the first, 0.708 ± 0.017 for the second.

First: PPPPPPPPSLSP
Second: PPPPPPPPTTVL
The protein stability index of the first is lower: 0.591 ± 0.047 for the first, 0.709 ± 0.023 for the second.

PPPPPPRPPLRP and PPPPPPVHPSSP are within error of each other in protein stability index: 0.727 ± 0.012 for the first, 0.728 ± 0.0081 for the second.

PPPPPPVSPAAL and PPPPPRLTPPRL are within error of each other in protein stability index: 0.69 ± 0.018 for the first, 0.722 ± 0.09 for the second.

First: PPPPPRPPPSSP
Second: PPPPPRPSPHPP
The protein stability index of the first is higher: 0.746 ± 0.058 for the first, 0.62 ± 0.058 for the second.

Compared with PPPPPSPSASSP, PPPPPSPSPCLA is higher in protein stability index: 0.491 ± 0.11 for the first, 0.767 ± 0.044 for the second.

PPPPPTAPPPSR and PPPPPTRPPTRV are within error of each other in protein stability index: 0.733 ± 0.055 for the first, 0.68 ± 0.079 for the second.

First: PPPPRAPVPLPV
Second: PPPPRLPLDPPL
The protein stability index of the first is lower: 0.575 ± 0.022 for the first, 0.658 ± 0.041 for the second.

Compared with PPPPSPPATPAP, PPPPSPPLHRPP is higher in protein stability index: 0.652 ± 0.015 for the first, 0.738 ± 0.016 for the second.

PPPPSPPPPSTT and PPPPTLPPPLVP are within error of each other in protein stability index: 0.751 ± 0.08 for the first, 0.726 ± 0.12 for the second.

PPPPTSFSPGTL and PPPPTSPTSPEL are within error of each other in protein stability index: 0.649 ± 0.043 for the first, 0.692 ± 0.051 for the second.

PPPRHVPLPPLT and PPPRLDTGAAQP are within error of each other in protein stability index: 0.71 ± 0.11 for the first, 0.665 ± 0.0097 for the second.

PPPRLVPSPPVP and PPPRPPGPPLPH are within error of each other in protein stability index: 0.7 ± 0.0039 for the first, 0.702 ± 0.075 for the second.

PPPRPPPAPLAS and PPPRVPPPVPPL are within error of each other in protein stability index: 0.705 ± 0.027 for the first, 0.722 ± 0.047 for the second.

PPPSDPLPPSVR and PPPSPAQIPRPS are within error of each other in protein stability index: 0.7044 ± 0.0067 for the first, 0.722 ± 0.19 for the second.

PPPSPPHFTSPP and PPPSRSLPPTPP are within error of each other in protein stability index: 0.683 ± 0.006 for the first, 0.746 ± 0.084 for the second.

PPPSSSGHPLHY and PPPSSSLAAPPT are within error of each other in protein stability index: 0.714 ± 0.05 for the first, 0.677 ± 0.026 for the second.

Going from PPPSSSSPPPPR to PPPSYSPSLSLL, the protein stability index falls from 0.704 ± 0.039 to 0.63132 ± 0.00041.

PPPTPACPPATL and PPPTPPPPRPLL are within error of each other in protein stability index: 0.693 ± 0.039 for the first, 0.747 ± 0.048 for the second.

PPPTPSGPHPAP and PPPTRPPPPPSL are within error of each other in protein stability index: 0.672 ± 0.028 for the first, 0.704 ± 0.075 for the second.

PPPVDLPTRLIP and PPPYHLTPPPPF are within error of each other in protein stability index: 0.642 ± 0.0073 for the first, 0.662 ± 0.052 for the second.

PPQLHVALPHPE and PPQRNFPARPTP are within error of each other in protein stability index: 0.852 ± 0.2 for the first, 0.6988 ± 0.0034 for the second.

PPRARPRLPPGA and PPRHTPTNPPKA are within error of each other in protein stability index: 0.606 ± 0.04 for the first, 0.677 ± 0.05 for the second.

PPRLPPLPPSYP and PPRPPLPPTLPP are within error of each other in protein stability index: 0.777 ± 0.14 for the first, 0.6973 ± 0.0026 for the second.

First: PPRPPPSPPLPS
Second: PPRPPRPSPPPP
The protein stability index of the first is lower: 0.663 ± 0.054 for the first, 0.72293 ± 8.1e-05 for the second.

PPRPRPPLPALP and PPRPRPPPSPYH are within error of each other in protein stability index: 0.764 ± 0.11 for the first, 0.667 ± 0.011 for the second.

PPRPVPRPHPRP and PPRQSHHPNPQH are within error of each other in protein stability index: 0.674 ± 0.011 for the first, 0.682 ± 0.038 for the second.

PPRRPPLAPPPP and PPRSSLNPDLTQ are within error of each other in protein stability index: 0.693 ± 0.019 for the first, 0.695 ± 0.1 for the second.

PPRYDSLFGALF and PPSAPPSPPHPP are within error of each other in protein stability index: 0.676 ± 0.066 for the first, 0.612 ± 0.011 for the second.

PPSFLHPTPRPR and PPSLLPAPQLPP are within error of each other in protein stability index: 0.673 ± 0.082 for the first, 0.757 ± 0.066 for the second.

PPSLLPSPPRLF and PPSLPHLCRLHL are within error of each other in protein stability index: 0.667 ± 0.057 for the first, 0.668 ± 0.057 for the second.

PPSLPLPLPSAP and PPSLVSPSSPPS are within error of each other in protein stability index: 0.683 ± 0.015 for the first, 0.708 ± 0.047 for the second.

Going from PPSPLAPPCSPR to PPSPLSRYSPRL, the protein stability index rises from 0.6719 ± 0.0056 to 0.754 ± 0.0043.

PPSPPAPSPTPP and PPSPPDPLLCSP are within error of each other in protein stability index: 0.721 ± 0.038 for the first, 0.7017 ± 0.0043 for the second.

PPSPPPPRPPSS and PPSPPSHTPPPS are within error of each other in protein stability index: 0.704 ± 0.055 for the first, 0.695 ± 0.051 for the second.

PPSPRFFPSFPP and PPSPRNSDPPPL are within error of each other in protein stability index: 0.729 ± 0.021 for the first, 0.654 ± 0.071 for the second.

PPSPRPALPLSL and PPSPRPPPSPPP are within error of each other in protein stability index: 0.762 ± 0.039 for the first, 0.7 ± 0.039 for the second.

PPSPSLLPPLPP and PPSPSPHPPPSH are within error of each other in protein stability index: 0.684 ± 0.041 for the first, 0.842 ± 0.15 for the second.

PPSPSPLPHSSP and PPSQLWNSPSPC are within error of each other in protein stability index: 0.676 ± 0.058 for the first, 0.767 ± 0.064 for the second.

PPSRFPAPPSCA and PPSSPLRRRTTS are within error of each other in protein stability index: 0.705 ± 0.059 for the first, 0.725 ± 0.078 for the second.

PPSSPPPASHRP and PPSTPPRPDSPP are within error of each other in protein stability index: 0.691 ± 0.046 for the first, 0.578 ± 0.084 for the second.

PPTANLAHSSHP and PPTHHRALRPSA are within error of each other in protein stability index: 0.693 ± 0.014 for the first, 0.687 ± 0.026 for the second.

First: PPTLPPPSPLIL
Second: PPTPMRAQRHPR
The protein stability index of the first is higher: 0.775 ± 0.11 for the first, 0.579 ± 0.01 for the second.

PPTPPLVPPTRH and PPTPPPLRPSFS are within error of each other in protein stability index: 0.739 ± 0.016 for the first, 0.704 ± 0.023 for the second.

PPTPPPPSGLPP and PPTPPPRPLQLP are within error of each other in protein stability index: 0.678 ± 0.05 for the first, 0.652 ± 0.0076 for the second.

Going from PPTRPFHLFDHL to PPVLAVRTSLDA, the protein stability index falls from 0.716 ± 0.029 to 0.636 ± 0.021.

PPVSPPPSRHPL and PPYPCRRPPPPP are within error of each other in protein stability index: 0.719 ± 0.04 for the first, 0.647 ± 0.033 for the second.

PPYPRRWAPLGP and PPYSLLFHPFPF are within error of each other in protein stability index: 0.6872 ± 0.0051 for the first, 0.699 ± 0.018 for the second.

PQPHLLRPPPHS and PQVSYYLLPPSS are within error of each other in protein stability index: 0.674 ± 0.018 for the first, 0.711 ± 0.11 for the second.

PQWVSIGSACCQ and PQYGTNQGRWTG are within error of each other in protein stability index: 0.754 ± 0.076 for the first, 0.705 ± 0.055 for the second.

PRALCPSSPPSR and PRAPRLQAPGPG are within error of each other in protein stability index: 0.764 ± 0.12 for the first, 0.75233 ± 0.00055 for the second.

Compared with PRCPVNTHPLAR, PRGVLSCPVFAP is higher in protein stability index: 0.702 ± 0.013 for the first, 0.776 ± 0.029 for the second.

Compared with PRGYCGLGRPAR, PRIFPDPVFPSL is higher in protein stability index: 0.6305 ± 0.0013 for the first, 0.688 ± 0.046 for the second.

First: PRKISSFESSLT
Second: PRLFPSSPLPFN
The protein stability index of the first is lower: 0.629 ± 0.086 for the first, 0.822 ± 0.018 for the second.

Compared with PRLLSLKLSALS, PRLPPLRPPPSP is higher in protein stability index: 0.629 ± 0.063 for the first, 0.7079 ± 0.0064 for the second.

Compared with PRLPPPSPPPLP, PRLPTSPVPHPP is lower in protein stability index: 0.735 ± 0.01 for the first, 0.6473 ± 0.0033 for the second.

PRLSGLFLAPPS and PRLSTYPDSPGS are within error of each other in protein stability index: 0.707 ± 0.037 for the first, 0.71038 ± 0.00066 for the second.

PRLVALFEKNPD and PRPCPASSPRPP are within error of each other in protein stability index: 0.6615 ± 0.0012 for the first, 0.627 ± 0.083 for the second.

PRPLLFPLIFTP and PRPLTPDPPRPL are within error of each other in protein stability index: 0.627 ± 0.026 for the first, 0.693 ± 0.062 for the second.

PRPPARPPLRLL and PRPPPPARSPPS are within error of each other in protein stability index: 0.719 ± 0.017 for the first, 0.66 ± 0.06 for the second.

PRPPPPCPPPSL and PRPPPSQATLSP are within error of each other in protein stability index: 0.71 ± 0.083 for the first, 0.637 ± 0.052 for the second.

PRPPRAPPPLPS and PRPPSPAPPPHP are within error of each other in protein stability index: 0.643 ± 0.1 for the first, 0.69904 ± 0.00044 for the second.

Going from PRPPSPRAPPPH to PRPRRFPPPLLA, the protein stability index falls from 0.631 ± 0.067 to 0.5103 ± 0.0049.
